# Results as given in US20260139017A1, “COMPOSITIONS AND METHODS USING REELIN IN ALZHEIMER'S DISEASE” (The General Hospital Corporation, priority 2022, published 2026).
# T1: NRP1 (Homo sapiens, UniProt O14786)
# T1 construct: purchased R&D 3870-N1-025
# T1 sequence (O14786 22-644 isoform O14786-2 limits assumed): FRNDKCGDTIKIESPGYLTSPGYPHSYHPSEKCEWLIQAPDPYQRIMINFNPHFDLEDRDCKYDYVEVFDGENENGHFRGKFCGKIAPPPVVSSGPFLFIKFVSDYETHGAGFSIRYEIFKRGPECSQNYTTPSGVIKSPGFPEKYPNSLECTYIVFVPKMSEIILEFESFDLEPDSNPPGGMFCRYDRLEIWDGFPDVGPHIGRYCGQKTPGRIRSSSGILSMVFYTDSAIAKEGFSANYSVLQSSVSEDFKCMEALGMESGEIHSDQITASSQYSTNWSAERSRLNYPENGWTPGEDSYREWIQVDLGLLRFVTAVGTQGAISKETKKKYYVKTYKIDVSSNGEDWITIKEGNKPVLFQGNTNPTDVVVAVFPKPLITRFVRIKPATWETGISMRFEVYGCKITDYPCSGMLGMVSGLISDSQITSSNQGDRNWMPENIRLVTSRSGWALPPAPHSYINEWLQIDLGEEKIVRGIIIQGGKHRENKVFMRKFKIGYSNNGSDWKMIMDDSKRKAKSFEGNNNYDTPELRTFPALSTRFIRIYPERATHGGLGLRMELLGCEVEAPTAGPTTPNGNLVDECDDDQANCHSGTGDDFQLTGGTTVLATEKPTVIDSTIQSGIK
# Legend:
# pDAB1 (Tyr232) [1] = assay: HRECs treated 5 minutes with recombinant mini-RELN, pDAB1 western blot; assay type: cell-based, human; settings: 5 minutes, 4 ug/mL recombinant protein
# Description: For in vitro screening of constructs using recombinant mini-RELN on HRECs, the cells were cultured in EBM-2 media enriched with EGM-2 Single Quots (Lonza) at 37° C. and 5% CO2 and experimentally tested at passage 7. 24 h prior experiment, cells were plated on a 6-well plate at 500,000 cells/mL. Two hours before the experiment, the cells were washed with PBS to remove residual growth media and then incubated with a starving media including EBM-2, 1% GlutaMax+0.2% Normicin. Treatments was conducted using recombinant mini RELN constructs obtained from Innovagen and Recombinant Mouse Reelin Protein from R&D systems (3820-MR-025/CF). Each treatment was incubated for 5 minutes at 4 ug/mL concentration and cells were subsequently harvested in lysis buffer was applied constituted of RIPA (Cell signaling), proteases inhibitors (cOmplete™, Mini, EDTA-free Protease Inhibitor Cocktail, Roche), phosphatases inhibitors (PhosSTOP, Roche), 1 μL of proteasome inhibitor MG-132 10 mM, 1% Triton X 100. The lysates were scraped and centrifugated at 15000 rpm for 10 minutes at 4° C. Total protein levels were quantified via BCA assay. For Western Blotting, 3.5 ug protein homogenates were prepared under reducing and denaturing conditions using Laemmli buffer enriched with 10 mM DTT and 5 min boiling. Samples were electrophoretically separated in a 4-20% Gel at 90V and protein transferred to a PVDF membrane using iBlot™ 2 Dry Blotting System. The membrane was blocked using Intercept® (TBS) Blocking Buffer for 2 hours. We detected pDAB1 (Tyr232; 1:1000, rabbit, #3325 Cell signaling), and total protein staining (Licor). Antibodies were diluted using Intercept® (TBS) Blocking Buffer and incubated overnight at 4C under gentle shaking. Prior secondary antibody incubation, membranes were washed 2 times using TBS-T for 10 minutes. As secondary antibodies we used IR Dye 800n CW Goat-anti-Rabbit (925-32211, Licor) diluted 1:10000 in blocking buffer for 1 h at room temperature under gentle shaking. Membranes were washed three times with TBST-T prior IR detection using Odyssey imager. To quantify the results, each band was quantified using ImageJ and data expressed as pDABL:total protein ratio normalized to the control.
# NRP1 = molecular target: T1, NRP1; assay: Bio-layer interferometry (BLI) of CTR-RELN-NRP-1 interactions; assay type: binding; settings: immobilized biotinylated NRP1
# Description: (§1) Bio-layer interferometry (BLI) was additionally used to assess NRP1-protein kinetics at 30° C. and 1000 rpm agitation. 1 mg/mL NRP1 (R&D 3870-N1-025) was biotinylated at a 1:2 molar ratio, desalted, and immobilized on the SA biosensor tip (Pall ForteBio) surface. This was followed by 1) 180 seconds baseline buffer diluent, 2) loading of the ligand (NRP1), 3) 180 seconds baseline buffer diluent, 4) 240 seconds association (analyte), and 5) 300 seconds disassociation in assay buffer. Assay buffer: SD Buffer (pH7.4 PBS, 0.05% tween20, 0.01% BSA).
# The experimental data were fit with the 1:1 binding model and analyzed with global fitting using Octet Data Analysis software to calculate KD.
# as §1, with “was” for “was additionally”, “agitation using previously published methods.” for “agitation.”
# pDAB1 (Tyr232) [2] = assay: HRECs treated 5 minutes with HEK 293T-derived mini-RELN media, pDAB1 western blot; assay type: cell-based, human; settings: HEK 293T-derived media 1:1, 1:4, 1:14, 5 minutes
# Description: The effect of in vitro treatment with RELN or miniRELN protein was also evaluated. HRECs were cultured in EBM-2 media enriched with EGM-2 Single Quots (Lonza) at 37° C. and 5% CO2 and experimentally tested at passage 7. 24 h prior experiment, cells were plated on a 6-well plate at 500,000 cells/mL. Two hours before the experiment, the cells were washed with PBS to remove residual growth media and then incubated with a starving media including EBM-2, 1% GlutaMax+0,2% Normicin. Treatments was conducted using media derived from HEK 293T cells transiently transfected for 24 h with different mini-RELN constructs in the presence of Lipofectamine 2000. HEK-derived Lipofectamine2000-media was used as negative control. HEK 293T-derived media was tested at different ratio 1:1, 1:4, and 1:14 (Transfected media:Starving media). Each treatment was incubated for 5 minutes and cells were subsequently harvested in lysis buffer was applied constituted of RIPA (Cell signaling), proteases inhibitors (cOmplete™, Mini, EDTA-free Protease Inhibitor Cocktail, Roche), phosphatases inhibitors (PhosSTOP, Roche), 1 μL of proteasome inhibitor MG-132 10 mM, 1% Triton X 100. The lysates were scraped and centrifugated at 15000 rpm for 10 minutes at 4° C. Total protein levels were quantified via BCA assay. […] We detected pDAB1 (Tyr232; 1:1000, rabbit, #3325 Cell signaling), and Beta actin (1:5000, mouse, #66009-1-Ig, Proteintech. Antibodies were diluted using Intercept® (TBS) Blocking Buffer and incubated overnight at 4C under gentle shaking. Prior secondary antibody incubation, membranes were washes 2 times using TBS-T for 10 minutes. As secondary antibodies we used IR Dye 800n CW Goat-anti-Rabbit (925-32211, Licor) and IR Dye 680 CW Goat-anti-Mouse (925-68070, Licor) both diluted 1:10000 in blocking buffer for 1 h at room temperature under gentle shaking. Membranes were washed three times with TBS-T prior IR detection using Odyssey imager. To quantify the results, each band was quantified using ImageJ and data expressed as pDAB1:βActin ratio normalized to the control. […]
molecule,measurement,setting,value
hG2Fc-R5-6-C-termH3447R (protein) MYRMQLLSCIALSLALVTNSAPLERKSSVECPPCPAPPVAGPSVFLFPPKPKDTLMISRTPEVTCVVVDVSHEDPEVQFNWYVDGVEVHNAKTKPREEQFNSTFRVVSVLTVVHQDWLNGKEYKCKVSNKGLPAPIEKTISKTKGQPREPQVYTLPPSREEMTKNQVSLTCLVKGFYPSDIAVEWESNGQPENNYKTTPPMLDSDGSFFLYSKLTVDKSRWQQGNVFSCSVMHEALHNHYTQKSLSLSPGARTGGGGSGGGGSQTNATRFRLWQPYNNGKKEEIWIVDDFIIDGNNVNNPVMLLDTFDFGPREDNWFFYPGGNIGLYCPYSSKGAPEEDSAMVFVSNEVGEHSITTRDLNVNENTIIQFEINVGCSTDSSSADPVRLEFSRDFGATWHLLLPLCYHSSSHVSSLCSTEHHPSSTYYAGTMQGWRREVVHFGKLHLCGSVRFRWYQGFYPAGSQPVTWAIDNVYIGPQCEEMCNGQGSCINGTKCICDPGYSGPTCKISTKNPDFLKDDFEGQLESDRFLLMSGGKPSRKCGILSSGNNLFFNEDGLRMLMTRDLDLSHARFVQFFMRLGCGKGVPDPRSQPVLLQYSLNGGLSWSLLQEFLFSNSSNVGRYIALEIPLKARSGSTRLRWWQPSENGHFYSPWVIDQILIGGNISGNMVLEDDFTTLDSRKWLLHPGGTKMPVCGSTGDALVFIEKASTRYVVSTDVAVNEDSFLQIDFAVSCSVTDSCYAIELEYSVDLGLSWHPLVRDCLPTNVECSRYHLQRILVSDTFNKWTRITLPLPPYTRSQATRFRWHQPAPFDKQQTWAIDNVYIGDGCIDMCSGHGRCIQGNCVCDEQWGGLYCDDPETSLPTQLKDNFNRAPSSQNWLTVNGGKLSTVCGAVASGMALHFSGGCSRLLVTVDLNLTNAEFIQFYFMYGCLITPNNRNQGVLLEYSVNGGITWNLLMEIFYDQYSKPGFVNILLPPDAKEIATRFRWWQPRHDGLDQNDWAIDNVLISGSASTRKQNYMMNFSRQHGLRRFYNRRRRSLRRYP,pDAB1 levels,pDAB1 (Tyr232) [1],increased pDAB1 levels
pfcn-huIgG2-C-termH3447R (protein) MYRMQLLSCIALSLALVTNSAPLERKSSVECPPCPAPPVAGPSVFLFPPKPKDTLMISRTPEVTCVVVDVSHEDPEVQFNWYVDGVEVHNAKTKPREEQFNSTFRVVSVLTVVHQDWLNGKEYKCKVSNKGLPAPIEKTISKTKGQPREPQVYTLPPSREEMTKNQVSLTCLVKGFYPSDIAVEWESNGQPENNYKTTPPMLDSDGSFFLYSKLTVDKSRWQQGNVFSCSVMHEALHNHYTQKSLSLSPGARTSTRKQNYMMNFSRQHGLRRFYNRRRRSLRRYP,ka,NRP1,12900 M⁻¹ s⁻¹
same,kd,NRP1,0.00102 s⁻¹
IL2ss-6xHis-FspCR50-R6-R6 Cterm RELN-H3447R (protein) MYRMQLLSCIALSLALVTNSGGHHHHHHGGGAAGYYPRFSPFFFLCTHHGELEGDGEQGEVLISLHIAGNPTYYVPGQEYHVTISTSTFFDGLLVTGLYTSTSVQASQSIGGSSAFGFGIMSDHQFGNQFMCSVVASHVSHLPTTNLSFIWIAPPAGTGCVNFMATATHRGQVIFKDALAQQLCEQGAPTDVTVHPHLAEIHSDSIILRDDFDSYHQLQLNPNIWVECNNCETGEQCGAIMHGNAVTFCEPYGPRELITTGLNTTTASVLQFSIGSGSCRFSYSDPSIIVLYAKNNSADWIQLEKIRAPSNVSTIIHILYLPEDAKGENVQFQWKQENLRVGEVYEACWALDNILIINGGSRTLDSRKWLLHPGGTKMPVCGSTGDALVFIEKASTRYVVSTDVAVNEDSFLQIDFAVSCSVTDSCYAIELEYSVDLGLSWHPLVRDCLPTNVECSRYHLQRILVSDTFNKWTRITLPLPPYTRSQATRFRWHQPAPFDKQQTWAIDNVYIGDGCIDMCSGHGRCIQGNCVCDEQWGGLYCDDPETSLPTQLKDNFNRAPSSQNWLTVNGGKLSTVCGAVASGMALHFSGGCSRLLVTVDLNLTNAEFIQFYFMYGCLITPNNRNQGVLLEYSVNGGITWNLLMEIFYDQYSSGGGTLDSRKWLLHPGGTKMPVCGSTGDALVFIEKASTRYVVSTDVAVNEDSFLQIDFAVSCSVTDSCYAIELEYSVDLGLSWHPLVRDCLPTNVECSRYHLQRILVSDTFNKWTRITLPLPPYTRSQATRFRWHQPAPFDKQQTWAIDNVYIGDGCIDMCSGHGRCIQGNCVCDEQWGGLYCDDPETSLPTQLKDNFNRAPSSQNWLTVNGGKLSTVCGAVASGMALHFSGGCSRLLVTVDLNLTNAEFIQFYFMYGCLITPNNRNQGVLLEYSVNGGITWNLLMEIFYDQYSTGGSGGSTRKQNYMMNFSRQHGLRRFYNRRRRSLRRYP,pDAB1 / Dab1 signaling activation,pDAB1 (Tyr232) [2],efficacy
